Results: paper PMC2773364

B1: recombinant CpI (Aspergillus oryzae RIB40) (protein)
chain: LPGSTPASVGRRQLPKNPTGVKTLTTANNVTIRYKEPGAEGVCETTPGVKSYSGYVDTSPESHTFFWFFEARHNPETAPITLWLNGGPGSDSLIGLFEELGPCHVNSTFDDYINPHSWNEVSNLLFLSQPLGVGFSYSDTVDGSINPVTGVVENSSFAGVQGRYPTIDATLIDTTNLAAEAAWEILQGFLSGLPSLDSRVQSKDFSLWTESYGGHYGPAFFNHFYEQNERIANGSVNGVQLNFNSLGIINGIIDEAIQAPYYPEFAVNNTYGIKAVNETVYNYMKFANQMPNGCQDLISTCKQTNRTALADYALCAEATNMCRDNVEGPYYAFAGRGVYDIRHPYDDPTPPSYYNKFLAKDSVMDAIGVNINYTQSNNDVYYAFQQTGDFVWPNFIEDLEEILALPVRVSLIYGDADYICNWFGGQAVSLAANYSQAAQFRSAGYTPLKVNGVEYGETREYGNFSFTRVYEAGHEVPYYQPIASLQLFNRTIFGWDIAEGQKKIWPSYKTNGTATATHTQSSVPLPTATSMSSVGMA
B2: recombinant OcpA (Aspergillus oryzae RIB40) (protein)
chain: YVNNSGICETTKGVNQYSGYLSVGENQNMFFWFFESRNNPQQAPLSAWFNGGPGCSSMIGLFQEHGPCHFVNGEDTPSLNEHSWNNFANMLYIDQPIGVGFSYGDNPVNSTWTAAPYVWKFLQAFYEHFPQYESRDFGIFTESYGGHYGPGFASYILDQNNAIEAGSQKGEKVNLVALGINNGMFDSTLQEKAYITFAYNNTYRQLIDESLKDKLLEAYESECLPAVQKCQQTQTNEDCQNAGSVCGESVENPIMQAGGDFDVYDVREPSNDPNPPETYSKYIARPDIMKAIGARSDYQECADAPGQKFGATGDEYRSTLPDLSEVIKAGVNVLVWAGTADYICNVDGSIAVANAVDFSGHDEFQGKALEAYKVNGKEVGQFKSVDNFHLLTVYDAGHEVPYYQPETALQAFTQILQKKPLSST

Assays:
purified protein [1] = substrate: CC(C)C[C@H](NC(=O)OCc1ccccc1)C(=O)N[C@@H](Cc1ccc(O)cc1)C(=O)O; assay: purified protein; conditions: 50 mM acetate buffer, pH 3.7, 30°C
purified protein [2] = substrate: O=C(O)CC[C@H](NC(=O)OCc1ccccc1)C(=O)N[C@@H](Cc1ccc(O)cc1)C(=O)O; assay: purified protein; conditions: 50 mM acetate buffer, pH 3.7, 30°C

Protein | Km (purified protein [1]) | kcat (purified protein [1]) | kcat/Km (purified protein [1]) | Km (purified protein [2]) | kcat (purified protein [2]) | kcat/Km (purified protein [2])
B1 | 340 µM | 30.3 s⁻¹ | 89800 M⁻¹ s⁻¹ | 270 µM | 20.1 s⁻¹ | 73200 M⁻¹ s⁻¹
B2 | 410 µM | 18 s⁻¹ | 43900 M⁻¹ s⁻¹ | 260 µM | 22.7 s⁻¹ | 85900 M⁻¹ s⁻¹
